Results as given in article PMC6182170, “A protein–protein interaction underlies the molecular basis for substrate recognition by an adenosine-to-inosine RNA-editing enzyme”.

Target: T1, ADR-1 WT (Caenorhabditis elegans, UniProt Q9U3D6 1-964)
T1 sequence: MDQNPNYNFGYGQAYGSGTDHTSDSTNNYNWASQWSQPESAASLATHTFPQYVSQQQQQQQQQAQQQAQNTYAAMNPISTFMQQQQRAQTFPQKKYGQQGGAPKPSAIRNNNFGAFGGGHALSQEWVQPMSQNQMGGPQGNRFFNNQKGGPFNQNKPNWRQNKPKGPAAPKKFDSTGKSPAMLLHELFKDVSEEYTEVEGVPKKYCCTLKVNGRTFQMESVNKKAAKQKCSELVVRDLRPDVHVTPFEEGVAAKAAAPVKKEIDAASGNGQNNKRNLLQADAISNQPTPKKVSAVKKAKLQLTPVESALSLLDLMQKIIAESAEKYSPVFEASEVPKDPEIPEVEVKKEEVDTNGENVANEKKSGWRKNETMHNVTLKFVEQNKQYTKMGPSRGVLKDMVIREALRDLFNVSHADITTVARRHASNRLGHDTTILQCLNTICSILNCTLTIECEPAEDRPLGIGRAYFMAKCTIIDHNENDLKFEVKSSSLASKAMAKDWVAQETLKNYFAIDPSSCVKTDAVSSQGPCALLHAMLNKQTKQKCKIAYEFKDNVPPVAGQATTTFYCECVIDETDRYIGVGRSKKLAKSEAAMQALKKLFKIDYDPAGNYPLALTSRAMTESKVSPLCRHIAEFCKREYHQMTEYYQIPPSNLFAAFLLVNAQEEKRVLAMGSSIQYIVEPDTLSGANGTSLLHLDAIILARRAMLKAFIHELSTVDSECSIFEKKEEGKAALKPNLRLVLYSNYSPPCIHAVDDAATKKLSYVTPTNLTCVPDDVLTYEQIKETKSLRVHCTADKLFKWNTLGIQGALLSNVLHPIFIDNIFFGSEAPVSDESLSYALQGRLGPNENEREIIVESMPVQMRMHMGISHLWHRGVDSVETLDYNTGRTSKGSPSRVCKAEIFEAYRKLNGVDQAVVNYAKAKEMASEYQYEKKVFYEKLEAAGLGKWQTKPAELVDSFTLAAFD
Assay: EMSA; apparent Kd; EMSA: 20 pM dsRNA, 50 mM KCl, 10 mM Tris-HCl pH 8.0, 10% glycerol, 1 mM MgCl2, 0.5 mM DTT, on ice 30 min; native 6% gel, 0.5x TBE, 4 C
Settings: protein: recombinant; tags: N-terminal 6xHis (TEV site); label: 5' 32P on ssRNAs (PNK); imperfect duplex; printed strands 45 and 46 nt

B1: lam-2 3'UTR 46 bp dsRNA (dsRNA)
RNA 1: AGACACACAUACAAAAUUUACAAAAAUUGUUAAUUGACAAAAUAC
RNA 2: GUGUUUUGCCAAUUAACGAUUUUUUGUAAAUUUUAUAUGUGUCUCU
In the case of B1, the Kd is reported as 1.75 ± 0.15 nM.
